Laboratory results taken from patent publication US20260139066A1 (VRIJE UNIVERSITEIT BRUSSEL, published 2026).

T1: canine urokinase plasminogen activator receptor, recombinant protein (canine)
T1 construct: Recombinant c uPAR produced by VIB (Ghent); also called c uPAR; canine uPAR
T1 chain: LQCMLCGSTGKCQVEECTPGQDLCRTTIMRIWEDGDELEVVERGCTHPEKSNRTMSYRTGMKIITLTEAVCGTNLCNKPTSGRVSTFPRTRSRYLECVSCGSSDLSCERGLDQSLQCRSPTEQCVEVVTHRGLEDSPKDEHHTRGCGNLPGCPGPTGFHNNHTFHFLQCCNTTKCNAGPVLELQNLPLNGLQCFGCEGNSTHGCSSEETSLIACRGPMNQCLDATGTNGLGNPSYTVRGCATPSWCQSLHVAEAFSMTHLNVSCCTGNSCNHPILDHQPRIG


What was measured:
[1] = target: T2, human urokinase plasminogen activator receptor, recombinant extracellular domain protein (human, UniProt Q03405 23-303); assay: SPR (Biacore T200) off-rate screening of bacterial extract, h uPAR immobilised on CM5; column koff
T2 construct: Bought recombinant protein (Sino Biological); also called h uPAR; human uPAR
T2 sequence (Q03405 23-303 limits assumed): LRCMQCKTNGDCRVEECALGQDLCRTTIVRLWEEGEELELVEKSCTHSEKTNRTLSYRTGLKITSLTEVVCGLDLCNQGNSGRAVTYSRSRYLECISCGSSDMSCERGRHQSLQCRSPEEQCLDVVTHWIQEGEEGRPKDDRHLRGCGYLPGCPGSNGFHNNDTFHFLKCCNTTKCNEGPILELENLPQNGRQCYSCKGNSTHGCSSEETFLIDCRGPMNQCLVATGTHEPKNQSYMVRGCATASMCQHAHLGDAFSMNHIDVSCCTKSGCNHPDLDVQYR
Protocol: (§1) SPR was performed using a Biacore device (Biacore T200; Cytiva). First, the CM5 sensor chip (Biacore, Series S Sensor Chip CM5; Cytiva) was activated with 1-ethyl-3-(3-dimethylaminopropyl) carbodiimide/N-hydroxysuccinimide (EDC/NHS; Amine Coupling Kit; Cytiva). Subsequently, h, m or c uPAR recombinant proteins (5 μg/mL) were immobilized on separate chips at pH 5. The SPR measurements were done at 25° C. in HEPES buffered saline (HBS; Cytiva) as a running buffer, with a flow rate of 30 μL/min. For off-rate screening, the contact time was set at 120 s, dissociation time at 600 s, and the runs were replicated 5 times. […] The association step was allowed for 180 s, the dissociation step for 600 s. For both studies, regeneration of 20 s at 30 μL/min using 0.1 M glycine at pH 2.5 followed by a stabilization period of 60 s, was performed.

[2] = target: T1, canine urokinase plasminogen activator …; assay: SPR (Biacore T200) kinetics, purified sdAb 150-0.62 nM, c uPAR immobilised on CM5, 1:1 fit
Protocol: (§2) The thermal stability of the sdAbs was determined via a thermal shift assay. Melting temperatures (Tₘ) ranged between 59.5 and 73.6° C. (Table 1). The kinetic parameters (kₐ, Kd, KD) of the purified sdAbs were evaluated via SPR on respectively h and c uPAR recombinant protein (FIG. 10, Table 1). Contrarily to the BE-ELISA results, no h/m or h/m/c cross-reactive sdAbs were identified. […] Finally, their binding to cell-membrane-expressed uPAR was investigated via flow cytometry using 1) h or c uPAR lentivirally transduced HEK293T cells and 2) U87 or HT29 cells with natural h expression. SdAbs showing a significant shift in binding compared to the control conditions (i.e., binding of the non-targeting sdAb R3B23) were further taken into consideration (FIG. 2). Based on the combined results in terms of production yield, stability, binding characteristics, and cross-reactivity, 2 anti-h uPAR (sdAb 3 and 4) and 4 cross-reactive h/c uPAR (sdAb 15, 16, 17 and 18, having respectively SEQ ID NOs: 2, 20, 21, 22) sdAbs were selected for further in vivo evaluation.
as §1

[3] = target: T2, human urokinase plasminogen activator …; assay: SPR (Biacore T200) kinetics, purified sdAb 150-0.62 nM, h uPAR immobilised on CM5, 1:1 fit
Protocol: as §2, §1

[4] = target: T1, canine urokinase plasminogen activator …; assay: SPR (Biacore T200) off-rate screening of bacterial extract, c uPAR immobilised on CM5; column koff
Protocol: as §1

[5] = target: T1, canine urokinase plasminogen activator …; assay: SPR (Biacore T200) kinetics, purified sdAb 150-0.62 nM, c uPAR immobilised on CM5, kd/ka
Protocol: as §2, §1

[6] = target: T2, human urokinase plasminogen activator …; assay: SPR (Biacore T200) kinetics, purified sdAb 150-0.62 nM, h uPAR immobilised on CM5, 1:1 fit; column kd
Protocol: as §2, §1

[7] = target: T2, human urokinase plasminogen activator …; assay: SPR (Biacore T200) kinetics, purified sdAb 150-0.62 nM, h uPAR immobilised on CM5, kd/ka
Protocol: as §2, §1

[8] = target: T1, canine urokinase plasminogen activator …; assay: SPR (Biacore T200) kinetics, purified sdAb 150-0.62 nM, c uPAR immobilised on CM5, 1:1 fit; column kd
Protocol: as §2, §1

| Binder | koff [1] | kon [2] | kon [3] | koff [4] | Kd [5] | koff [6] | Kd [7] | koff [8] |
| --- | --- | --- | --- | --- | --- | --- | --- | --- |
| sdAb 15 (clone 5A4) with carboxy-terminal hexahistidine tag (VHH, Lead compound; C-terminal 6His for purified-protein SPR; koff screen used bacterial extracts of the pMECS-GG construct; also called sdAb15.6His; Nr 15) VHH: QVQLQESGGGWVQPGGSLRLSCAASGFTLDYYGIGWFRQAPGKEREGVSCISSSDGSTYYADSVKGRFTISRDNAKNTVYLQMNSLKPEDTAVYYCATRGASCYYTGSYSLGYDYWGQGTQVTVSS | 0.0042 s⁻¹ | 170000 M⁻¹ s⁻¹ | 1.6e+06 M⁻¹ s⁻¹ | 0.0065 s⁻¹ | 12 nM | 0.0034 s⁻¹ | 2.1 nM | 0.002 s⁻¹ |
| sdAb 16 (clone 5A5) with carboxy-terminal hexahistidine tag (VHH, C-terminal 6His for purified-protein SPR; koff screen used bacterial extracts; also called Nr 16) VHH: QVQLQESGGGLVQPGGSLRLSCAISGFTLDYYGIGWFRQAPGKEREGVSCISSSDGSTYYADSVKGRFTISRDNAKNTVYLQMNSLKPEDTAVYYCATRGASCYYSGSYSLGYDYWGQGTQVTVSS | 0.0027 s⁻¹ | 86000 M⁻¹ s⁻¹ | 500000 M⁻¹ s⁻¹ | 0.01 s⁻¹ | 36 nM | 0.0015 s⁻¹ | 3 nM | 0.0031 s⁻¹ |
| sdAb 17 (clone 5B7) with carboxy-terminal hexahistidine tag (VHH, C-terminal 6His for purified-protein SPR; koff screen used bacterial extracts; also called Nr 17) VHH: QVQLQESGGGLVQPGGSLRLSCAVSGSTLEYYGIGWFRQAPGKEREGVSCISSSDGSTYYADSVKGRFTISRDNAKNTVYLQMNSLKPEDTAVYYCATRGASCYYTGSYSLGYDYWGQGTQVTVSS | 0.0026 s⁻¹ | 120000 M⁻¹ s⁻¹ | 860000 M⁻¹ s⁻¹ | 0.0073 s⁻¹ | 17 nM | 0.0019 s⁻¹ | 2.3 nM | 0.0019 s⁻¹ |
| sdAb 18 (clone 5H2) with carboxy-terminal hexahistidine tag (VHH, C-terminal 6His for purified-protein SPR; koff screen used bacterial extracts; also called Nr 18) VHH: QVQLQESGGGLAQPGGSLRLSCTASGFTSDYYGIGWFRQAPGKEREGVSCISSSDGSTYYADSVKGRFTISRDNAKNTVYLQMNSLKPEDTAVYYCATRGASCYYTGSYSLGYDYWGQGTQVTVSS | 0.0031 s⁻¹ | 100000 M⁻¹ s⁻¹ | 840000 M⁻¹ s⁻¹ | 0.0092 s⁻¹ | 34 nM | 0.004 s⁻¹ | 4.7 nM | 0.0035 s⁻¹ |
